Test results as given in patent publication US20090175796A1 (AGENSYS, published 2009).

T1: 24P4C12 protein (human) (human, UniProt Q53GD3 1-710)
T1 construct: whole, on cells; also called SLC44A4; CTL4
T1 sequence (looked up): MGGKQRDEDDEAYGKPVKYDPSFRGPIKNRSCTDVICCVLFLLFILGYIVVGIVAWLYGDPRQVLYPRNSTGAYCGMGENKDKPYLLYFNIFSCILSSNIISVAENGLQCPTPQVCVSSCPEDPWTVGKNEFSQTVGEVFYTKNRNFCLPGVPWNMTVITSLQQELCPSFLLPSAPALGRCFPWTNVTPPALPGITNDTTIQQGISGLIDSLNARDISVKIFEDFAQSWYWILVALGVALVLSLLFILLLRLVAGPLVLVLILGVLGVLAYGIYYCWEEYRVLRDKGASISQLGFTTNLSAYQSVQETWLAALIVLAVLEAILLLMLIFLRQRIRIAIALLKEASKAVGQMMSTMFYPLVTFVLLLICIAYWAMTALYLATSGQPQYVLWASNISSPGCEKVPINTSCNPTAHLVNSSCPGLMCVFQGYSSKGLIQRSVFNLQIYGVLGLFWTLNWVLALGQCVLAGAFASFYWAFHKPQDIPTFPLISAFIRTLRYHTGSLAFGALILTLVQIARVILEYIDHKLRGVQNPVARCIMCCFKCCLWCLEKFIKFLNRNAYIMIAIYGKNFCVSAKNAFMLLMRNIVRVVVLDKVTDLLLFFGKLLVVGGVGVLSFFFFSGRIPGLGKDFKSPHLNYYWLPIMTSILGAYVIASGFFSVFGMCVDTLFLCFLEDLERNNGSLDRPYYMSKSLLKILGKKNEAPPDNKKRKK

B1: Ha5-1(5)1 (antibody, V domains shown)
VH: QVQLVESGGGVVQPGRSLRLSCGASGFTFSSYGMHWVRQAPGKGLEWVAVMSYDGSKKYYTDSVKGRFTISRDNSKNTLYLQMNSLRVEDTAVYYCARDGGDYVRYYYYGMDVWGQGTTVTVSS
VL: DIQMTQSPSSLSASVGDRVTITCRARQGITYHLAWYQQRPGKVPKLLIYDTSSLQSGVPSRFSGSGSGTDFTLTISSLQPEDVATYYCQRFNSAPLTFGGGTKVEIK
notes: also called HA5-1(5)1.1
B2: Ha5-7acd10.1 (antibody, V domains shown)
VH: QVQLVESGGGVVQPGRSLRLSCAASGFTFSSYGMHWVRQAPGKGLEWVAVIWYDGSNKYYADSVKGRFTISRDNSKNTLYLQMNSLRAEDTAVYYCARDRYSGYDYYYYYGMDVWGQGTTVTVSS
VL: DIQMTQSPSSLSASVGDRVTITCRASQGIYNYLAWFQQKPGKAPKSLIYAASSLHSGVPSKFSGGGSGTDFTLTISSLQPEDFATYYCQQYTIYPFTFGPGTKVDIK
notes: copies: 2 + 2
B3: Ha5-3(1,4)7.1 (antibody, V domains shown)
VH: QVQLVESGGGVVQPGRSLRLSCAASGFTFSSYGMHWVRQAPGKGLEWVAVIWYDGSNKYYADSVKGRFTISRDNSKNTLYLQMNSLRAEDTAVYYCARDRYSGYGYYYYYGMDVWGQGTTVTVSS
VL: DIQMTQSPSSLSASVGDRVTITCRASQDISNYLAWFQQKPGKAPKSLIYAASSLHSGVPSKFSGSGSGTDFTLTISSLQPEDFATYYCQQYTIYPFTFGPGTKVDIK
modifications: Labelled with Alexa Fluor 488 in the FIG. 14 experiment. The site is not stated and the letters do not carry it.
B4: Ha5-7acd3.1 (antibody, V domains shown)
VH: QVQLVESGGGVVQPGRSLRLSCAASGFTFSSYGMHWVRQAPGKGLEWVAVIWYDGSNKYYTDSVKGRFTISRDNSKNTLYLQMNSLRAEDTAVYYCARDRYSGYDYFYYYGMDVWGQGTTVTVSS
VL: DIQMTQSPSSLSASVGDRVTITCRASQGIYNYLAWFQQKPGKAPRSLIYAASSLHSGVPSKFSGSGSGTDFTLTISSLQPEDFATYYCQQYTIYPFTFGPGTKVDIK
B5: Ha5-7acd4.1 (antibody, V domains shown)
VH: QVQLVESGGGVVQPGRSLRLSCAASGFTFSSYGMHWVRQAPGKGLEWVAVIWYDGSNKYYADSVKGRFTISRDNSKNTLYLQMNSLRAEDTAVYYCARDRYSGYDYYYYYGMDVWGQGTTVTVSS
VL: DIQMTQSPSSLSASVGDRVTITCRASQVIYNYLAWFQQKPGKAPKSLIYGASSLHSGVPSKFSGSGSGTEFTLTISSLQPEDFATYYCQQYTIYPFSFGPGTKVDIK
B6: Ha5-7acd16.1 (antibody, V domains shown)
VH: QVQLVESGGGVVQPGRSLRLSCAASGFTFSSHGMHWVRQAPGKGLEWVAVIWYDGSNKYYADSVKGRFTISRDNSKNTLYLQMNSLRAEDTAVYYCARDAYSGYDYYYYYGMDVWGQGTTVTVSS
VL: DIQMTQSPSSLSASVGDRVTITCRASQGIYTYLAWFQQKPGKAPKSLIYGASSLQSGVPSKFSGSGSGTDFTLTITSLQPEDFATYYCQQYTIYPFSFGPGTKVDIK
notes: also called HA5-acd16.1; copies: 2 + 2
B7: Ha5-7acd20.1.1 (antibody, V domains shown)
VH: QVQLVESGGGVVQPGRSLRLSCAASGFTFSSYGMHWVRQAPGKGLEWVAVIWYDGRNKYYVDSVKGRFTISRDNSKNTLYLQMNSLRAEDTAVYYCARDRYSGSDYYYYYGMDVWGQGTTVTVSS
VL: DIQMTQSPSSLSASVGDRVTITCRASQGIYNYLAWFQQKPGKAPKSLIYAASSLQSGVPSKFSGSGSGTVFTLTISSLQPEDFATYYCQQYTVYPFTFGPGTKVDFK
B8: Ha5-7acd2.1 (antibody, V domains shown)
VH: QVQLQESGPGLVKPSETLSLTCTVSGGSISSYYWSWIRQPPGKGLEWIGYIYYSGSTNYNPSLKSRVTISVDTSKNQFSLKLSSVTAADTAVYYCANTYYYGSGYGMDVWGQGTTVTVSS
VL: DIVMTQSPLSLPVTPGEPASISCRSSQSLLHSTGHNYLDWYLQKPGQSPQLLIYLGSIRASGVPDRFSGSGSGTDFTLKISRVEAEDVGVYYCMQALQTITFGQGTRLEIK
B9: Ha5-7acd19.1 (antibody, V domains shown)
VH: QVQLQESGPGLVKPSETLSLTCTVSGGSISSYYWSWIRQPPGKGLEWIGFIYYTGSTNYNPSLKSRVTISVDTSKNQFSLKLSSVTAADTAVYYCANTYYYGSGYGMDVWGQGTTVTVSS
VL: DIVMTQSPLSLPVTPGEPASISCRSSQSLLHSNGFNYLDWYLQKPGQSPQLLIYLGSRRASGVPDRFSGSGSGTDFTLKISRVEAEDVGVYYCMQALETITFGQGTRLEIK
modifications: Labelled with Alexa Fluor 488 dye in the FIG. 14 experiment; the site is not stated and the letters do not carry it.
notes: copies: 2 + 2
B10: Ha5-7acd7.1.1 (antibody, V domains shown)
VH: QVQLQESGPGLVKPSETLSLTCTVSGGSVSSGGYYWSWIRQPPGKGLEWIGYIYYSGGTNYNPSLKSRVTISVDTSKNQFSLKLTSVTAADTAVYYCARESGYCTNVACFPDAFDIWGQGTMVTVSS
VL: DVVMTQSPFSLPVTPGEPASISCRSSQSLLHSNGFNFLDWYLQKPGQSPQLLIYLGSIRASGVPDRFSGSGSGTDFTLKISRVEAEDVGVYYCMQALQTPLTFGGGTRVEIK
notes: copies: 2 + 2
B11: Ha5-8ac4.1 (antibody, V domains shown)
VH: QVQLQESGPGLVKPSETLSLTCTVSGGSISRYYWSWIRQPAGKGLERIGRIYTSGSTDYNPSLKSRVTMSVDTSKNQFSLKLRSVTAADTAVYYCARDLYSNGYWYFDLWGRGTLVTVSS
VL: QSVLTQPPSVSGAPGQRVTISCTGSSSNIGAGYDVHWYQQLPGTAPKLLIYGNSNRPSGVPDRFSGSKSGTSASLAITGLQAEDEADYYCQSYDSSLSGVVFGGGTKLTVL
notes: also called Ha5-8acd4.1
B12: Ha5-11b1.1 (antibody, V domains shown)
VH: QVQLVESGGGVVQPGRSLRLSCAASGFTFSSHGMHWVRQAPGKGLEWVAVIWYDGSNKYYADSVKGRFTISRDNSKNTLYLQMNSLRAEDTAVYYCARDQYSGYDLYYYYGMDVWGQGTTVTVSS
VL: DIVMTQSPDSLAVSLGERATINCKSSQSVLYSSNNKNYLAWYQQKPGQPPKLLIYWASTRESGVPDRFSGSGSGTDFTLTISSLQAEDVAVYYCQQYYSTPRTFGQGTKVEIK
B13: Ha5-1(5)2.1 (antibody, V domains shown)
VH: QVQLVESGGGVVQPGRSLRLSCAASGFTFSSYGMHWVRQAPGKGLEWVAVMSYDGSKKFYTDSVKGRFTISRDNSKNTLYLQMNSLRAEDTAVYYCARDGGDYVRYHYYGMDVWGQGTTVTVSS
VL: DIQMTQSPSTLSASIGDRVTITCRASQGISYYLAWYQQKPGKIPKLLIYDTSSLQSGVPSRFSGSRSGTDLSLTISSLQPEDVATYYCQRYDSAPLTFGGGTKVEIK
B14: Ha5-3(3,5)37.1 (antibody, V domains shown)
VH: QVQLQESGPGLVKPSETLSLTCTVSGGSISSYYWSWIRQPPGKGLEWIGYIYYSGSTNYNPSLKSRVTISVDTSKNQFSLKLNSVTAADTAVYYCARGYYYGSESPYGMDVWGQGTTVTVSS
VL: DIVMTQSPLSLPVTPGEPASISCRSSQSLLHSNGHNYLDWYLQKPGQSPHLLIYLGSNRDSGVPDRFSGSGSGTDFTLKISRVEAEDVGVYYCMQALQIPCSFGQGTKLEIK
B15: Ha5-7be20.1 (antibody, V domains shown)
VH: QVQLQESGPGLVKPSETLSLTCTVSGGSISSYYWSWIRQPPGKGLEWIGYIYYSGSTNYNPSLKSRVTISVDTSKNQFSLKLSSVTAADTAVYYCARGYYYGSGSYGLDVWGQGTTVTVSS
VL: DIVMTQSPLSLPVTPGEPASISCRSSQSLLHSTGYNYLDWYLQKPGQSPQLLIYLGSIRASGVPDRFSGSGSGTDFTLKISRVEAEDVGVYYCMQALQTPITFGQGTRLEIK
B16: Ha5-7be31.1 (antibody, V domains shown)
VH: QVQLQESGPGLVKPSETLSLTCTVSGGSISSYYWSWIRQPPGKGLEWIGYIYYSGSTNYNPSLKSRVTISVDTSKNQFSLKLSSVTAADTAVYYCARGYYYGAGSYGMDVWGQGTTVTVSS
VL: DIVMTQSPLSLPVTPGEPASISCRSSQSLLHSTGFNYLDWYLQKPGQSPQLLIYLGSIRASGVPDRFSGSGSGTDFTLKISRVETEDVGVYYCMQTLQTPITFGQGTRLEIK
notes: copies: 2 + 2

biological target: T1, 24P4C12 protein (human); experiment: FACS saturation equilibrium binding on LNCaP cells
Description: The affinity to LNCaP cells was determined by FACS using saturation equilibrium binding assay. […] At the end of incubation, the cells were washed with FACS Buffer and incubated with 100 ul of detection antibody (anti-hIgG-PE) for 45 minutes at 4° C., the cells were then washed with FACS Buffer, fixed with 2% Formaldehyde and analyzed using FACScan. FACS data were analyzed using CellQuest Pro software to acquire histogram and Mean Fluoresces Intensity (MFI) values of each point. The MFI values were used to calculate the binding affinity using non-linear regression using Prism4 software (Graphpad Software Inc. San Diego Calif.).

Going from B1 to B2, the Kd falls from 4.1 nM to 1.26 nM (3.3-fold).

B3 and B4 are within 1.5-fold of each other in Kd: 5.5 nM for the first, 4.4 nM for the second.

B5 and B6 are within 1.5-fold of each other in Kd: 0.99 nM for the first, 0.7 nM for the second.

Going from B7 to B8, the Kd rises from 1.1 nM to 1.95 nM (1.8-fold).

Going from B9 to B10, the Kd rises from 0.19 nM to 1.85 nM (9.7-fold). The first binds more tightly here.

First: B11
Second: B12
The Kd of the first is 49-fold lower: 0.07 nM for the first, 3.4 nM for the second. The first binds more tightly here.

First: B13
Second: B14
The Kd of the first is 6.1-fold higher: 2.75 nM for the first, 0.45 nM for the second.

B15 and B16 are within 1.5-fold of each other in Kd: 3.2 nM for the first, 4.15 nM for the second.
